In the assay the target is recombinant NRP1-derived trap consisting of the extracellular domain of NRP1 (UniProt O14786 22-856). Nature of the assay: SPR.
Sequence of recombinant NRP1-derived trap consisting of the extracellular domain of NRP1 (O14786 22-856): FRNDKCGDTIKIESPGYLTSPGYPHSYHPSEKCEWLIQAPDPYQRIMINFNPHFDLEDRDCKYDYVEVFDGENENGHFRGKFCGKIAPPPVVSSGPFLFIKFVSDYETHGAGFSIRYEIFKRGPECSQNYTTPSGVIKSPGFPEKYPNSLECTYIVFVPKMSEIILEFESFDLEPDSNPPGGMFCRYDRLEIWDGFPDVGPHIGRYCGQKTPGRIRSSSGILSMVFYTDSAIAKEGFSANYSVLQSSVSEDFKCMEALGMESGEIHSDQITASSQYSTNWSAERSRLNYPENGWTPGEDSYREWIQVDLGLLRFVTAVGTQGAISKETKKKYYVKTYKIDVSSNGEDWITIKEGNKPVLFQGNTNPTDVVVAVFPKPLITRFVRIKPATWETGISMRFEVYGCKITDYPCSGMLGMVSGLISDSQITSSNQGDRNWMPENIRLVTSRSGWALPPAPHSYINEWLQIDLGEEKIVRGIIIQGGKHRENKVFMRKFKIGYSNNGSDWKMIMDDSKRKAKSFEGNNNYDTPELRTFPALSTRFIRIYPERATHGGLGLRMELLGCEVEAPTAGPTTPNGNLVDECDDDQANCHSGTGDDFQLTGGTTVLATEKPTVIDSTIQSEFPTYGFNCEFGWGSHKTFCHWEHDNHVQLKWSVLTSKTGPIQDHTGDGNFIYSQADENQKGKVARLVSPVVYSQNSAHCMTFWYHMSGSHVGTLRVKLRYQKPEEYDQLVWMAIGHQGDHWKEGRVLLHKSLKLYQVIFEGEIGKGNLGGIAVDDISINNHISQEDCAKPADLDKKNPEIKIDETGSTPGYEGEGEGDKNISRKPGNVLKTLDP

B1: Semaphorin 3A (ligand)
chain: NYQNGKNNVPRLKLSYKEMLESNNVITFNGLANSSSYHTFLLDEERSRLYVGAKDHIFSFDLVNIKDFQKIVWPVSYTRRDECKWAGKDILKECANFIKVLKAYNQTHLYACGTGAFHPICTYIEIGHHPEDNIFKLENSHFENGRGKSPYDPKLLTASLLIDGELYSGTAADFMGRDFAIFRTLGHHHPIRTEQHDSRWLNDPKFISAHLISESDNPEDDKVYFFFRENAIDGEHSGKATHARIGQICKNDFGGHRSLVNKWTTFLKARLICSVPGPNGIDTHFDELQDVFLMNFKDPKNPVVYGVFTTSSNIFKGSAVCMYSMSDVRRVFLGPYAHRDGPNYQWVPYQGRVPYPRPGTCPSKTFGGFDSTKDLPDDVITFARSHPAMYNPVFPMNNRPIVIKTDVNYQFTQIVVDRVDAEDGQYDVMFIGTDVGTVLKVVSIPKETWYDLEEVLLEEMTVFREPTAISAMELSTKQQQLYIGSTAGVAQLPLHRCDIYGKACAECCLARDPYCAWDGSACSRYFPTAKRRTRRQDIRNGDPLTHCSDLHHDNHHGHSPEERIIYGVENSSTFLECSPKSQRALVYWQFQRRNEERKEEIRVDDHIIRTDQGLLLRSLQQKDSGNYLCHAVEHGFIQTLLKVTLEVIDTEHLEELLHKDDDGDGSKTKEMSNSMTPSQKVWYRDFMQLINHPNLNTMDEFCEQVWKRDRKQRRQRPGHTPGNSNKWKHLQENKKGRNRRTHEFERAPRSV
As a reminder, the koff is the rate constant with which the complex falls apart. B1: the koff was determined as 0.000155 s⁻¹.

B2: vascular endothelial growth factor A (ligand)
chain: APMAEGGGQNHHEVVKFMDVYQRSYCHPIETLVDIFQEYPDEIEYIFKPSCVPLMRCGGCCNDEGLECVPTEESNITMQIMRIKPHQGQHIGEMSFLQHNKCECRPKKDRARQENPCGPCSERRKHLFVQDPQTCKCSCKNTDSRCKARQLELNERTCRCDKPRR
modifications: Assumed to be VEGF165, the customary recombinant product, because the isoform is not printed. Mature residues 1-165 equal entry residues 207-395 with the exon 6a region 321-345 replaced by the splice-junction Asn. K321N is this natural splice residue, not an engineered mutation. Disulfide-linked antiparallel homodimer.
With B2, the koff was found to be 0.0012 s⁻¹.

Source of the values: publication PMC8103107 (2021).
